Data from the supplement of paper PMC12783771.
± gives the standard deviation of the averaged measurements.

B1: library; numbered along this chain (parent)
chain: MNIQIGELAKRTACPVVTIRFYEQEGLLPPPGRSRGNFRLYGEEHVERLQFIRHCRSLDMPLSDVRTLLSYRKRPDQDCGEVNMLLDEHIRQVESRIGALLELKHHLVELREACSGARPAQSCGILQGLSDCVCDTRGTTAHPSD

Key:
[1] = variants of: B1; experiment: sfGFP reporter fluorescence (15 h) (µM FITC); higher = higher leak; settings: library round: Round 0; ligand: none
Procedure, shortened: (§1)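 PCR-made linear PbrR templates (Echo-normalized to 5 nM) were expressed in BL21 Star (DE3) extract (PANOx-SP) with pPbrR-sfGFP reporter plasmid and 30 μg/mL GamS. Reactions were 1 μL, Echo-assembled, with 1 µM lead chloride, 30 µM zinc acetate or no metal, incubated 15 hr at 30 °C. Endpoint sfGFP fluorescence (485/528 nm, Synergy Neo2) was converted to µM FITC via standard curves in 50 mM sodium borate pH 8.5. Up to three biological replicates.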

[2] = variants of: B1; experiment: sfGFP reporter fluorescence (15 h) (µM FITC); higher = stronger transcriptional activation; settings: library round: Round 0
Procedure, shortened: as §1

MNIQIGELAKRTACPVVTIRFYEQEGLLPPPGRSRGNFRLYGEEHVERLQFIRHCRSLDMPLSDVRTLLSYRKRPDQDCGEVNMLLDEHIRQVESRIGALLELKHHLVELREACSGARPAQSCGKLQGLSDCVCDTRGTTAHPSD [I125K]
sfGFP reporter fluorescence [1]: 0.0599 ± 0.0029 | sfGFP reporter fluorescence ([2]; ligand: 1 µM Pb): 0.05864 ± 0.00052 | sfGFP reporter fluorescence ([2]; ligand: 30 µM Zn): 0.0564 ± 0.0031

MNIQIGELAKRTACPVVTIRFYEQEGLLPPPGRSRGNFRLYGEEHVERLQFIRHCRSLDMPLSDVRTLLSYRKRPDQDCGEVNMLLDEHIRQVESRIGALLELKHHLWELREACSGARPAQSCGILQGLSDCVCDTRGTTAHPSD [V108W]
sfGFP reporter fluorescence [1]: 0.0583 ± 0.001 | sfGFP reporter fluorescence ([2]; ligand: 1 µM Pb): 0.072 ± 0.0029 | sfGFP reporter fluorescence ([2]; ligand: 30 µM Zn): 0.554 ± 0.0067

MNIQIGELAKRTACPVVTIRFYEQEGLLPPPGRSRGNFRLYGEEHVERLQFIRHCRSLDMPLSDVRTLLSYRKRPDQDCGEVNMMLDEHIRQVESRIGALLELKHHLVELREACSGARPAQSCGILQGLSDCVCDTRGTTAHPSD [L85M]
sfGFP reporter fluorescence [1]: 0.05754 ± 0.00052 | sfGFP reporter fluorescence ([2]; ligand: 1 µM Pb): 0.06945 ± 0.00026 | sfGFP reporter fluorescence ([2]; ligand: 30 µM Zn): 0.597 ± 0.017

MNIQIGELAKRTACPVVTIRFYEQEGLLPPPGRSRGNFRLYGEEHVERLQFIRHCRSLDMPCSDVRTLLSYRKRPDQDCGEVNMLLDEHIRQVESRIGALLELKHHLVELREACSGARPAQSCGILQGLSDCVCDTRGTTAHPSD [L62C]
sfGFP reporter fluorescence [1]: 0.061 ± 0.0018 | sfGFP reporter fluorescence ([2]; ligand: 1 µM Pb): 0.0651 ± 0.0013 | sfGFP reporter fluorescence ([2]; ligand: 30 µM Zn): 0.0995 ± 0.00078

MNLQIGELAKRTACPVVTIRFYEQEGLLPPPGRSRGNFRLYGEEHVERLQFIRHCRSLDMPLSDVRTLLSYRKRPDQDCGEVNMLLDEHIRQVESRIGALLELKHHLVELREACSGARPAQSCGILQGLSDCVCDTRGTTAHPSD [I3L]
sfGFP reporter fluorescence [1]: 0.0568 ± 0.0057 | sfGFP reporter fluorescence ([2]; ligand: 1 µM Pb): 0.0722 ± 0.0042 | sfGFP reporter fluorescence ([2]; ligand: 30 µM Zn): 0.821 ± 0.0098

MNIQIGELAKRTACPVVTIRFYEQEGLLAPPGRSRGNFRLYGEEHVERLQFIRHCRSLDMPLSDVRTLLSYRKRPDQDCGEVNMLLDEHIRQVESRIGALLELKHHLVELREACSGARPAQSCGILQGLSDCVCDTRGTTAHPSD [P29A]
sfGFP reporter fluorescence [1]: 0.0607 ± 0.0044 | sfGFP reporter fluorescence ([2]; ligand: 1 µM Pb): 0.0704 ± 0.0031 | sfGFP reporter fluorescence ([2]; ligand: 30 µM Zn): 0.455 ± 0.039

MNIQIGELAKRTACPVVTIRFYEQEGLLPPPGRSRGNFRLYGEEHVERLQFIRHCRSLDMPLSDVRTLLSYRKRPDQDCGEVNMLLDEWIRQVESRIGALLELKHHLVELREACSGARPAQSCGILQGLSDCVCDTRGTTAHPSD [H89W]
sfGFP reporter fluorescence [1]: 0.0607 ± 0.0023 | sfGFP reporter fluorescence ([2]; ligand: 1 µM Pb): 0.0585 ± 0.00078 | sfGFP reporter fluorescence ([2]; ligand: 30 µM Zn): 0.06084 ± 0.00052

MNIQIGELAKRTACPVVTIRFYEQEGLLPPPGRSRGNFRLYGEEHVERLQFIRHCRSLDMPLSDVRTLLSYRKRPDQDCGEVNMLLDEIIRQVESRIGALLELKHHLVELREACSGARPAQSCGILQGLSDCVCDTRGTTAHPSD [H89I]
sfGFP reporter fluorescence [1]: 0.0539 ± 0.0047 | sfGFP reporter fluorescence ([2]; ligand: 1 µM Pb): 0.0537 ± 0.0018 | sfGFP reporter fluorescence ([2]; ligand: 30 µM Zn): 0.0594 ± 0.0021

MNIQIGELAKRTACPVVTIRFYEQEGLKPPPGRSRGNFRLYGEEHVERLQFIRHCRSLDMPLSDVRTLLSYRKRPDQDCGEVNMLLDEHIRQVESRIGALLELKHHLVELREACSGARPAQSCGILQGLSDCVCDTRGTTAHPSD [L28K]
sfGFP reporter fluorescence [1]: 0.06304 ± 0.00052 | sfGFP reporter fluorescence ([2]; ligand: 1 µM Pb): 0.0625 ± 0.0018 | sfGFP reporter fluorescence ([2]; ligand: 30 µM Zn): 0.05809 ± 0.00026

MNIQIGELAKRTACPVVTIRFYEQEGLLPPPGRSRGNFRLYGEEHVERLQFIRHCRSLDMPLSDVRTLLSYRKRPDQDCGEVNMLLDEHIRQVLSRIGALLELKHHLVELREACSGARPAQSCGILQGLSDCVCDTRGTTAHPSD [E94L]
sfGFP reporter fluorescence [1]: 0.0579 ± 0.0021 | sfGFP reporter fluorescence ([2]; ligand: 1 µM Pb): 0.0698 ± 0.0075 | sfGFP reporter fluorescence ([2]; ligand: 30 µM Zn): 0.583 ± 0.006

MNIQIGELAKRTACPVVTIRFYEQEGLLPPPGRSRENFRLYGEEHVERLQFIRHCRSLDMPLSDVRTLLSYRKRPDQDCGEVNMLLDEHIRQVESRIGALLELKHHLVELREACSGARPAQSCGILQGLSDCVCDTRGTTAHPSD [G36E]
sfGFP reporter fluorescence [1]: 0.05992 ± 0.00026 | sfGFP reporter fluorescence ([2]; ligand: 1 µM Pb): 0.0618 ± 0.0018 | sfGFP reporter fluorescence ([2]; ligand: 30 µM Zn): 0.115 ± 0.0098

MNIQIGELAKRTACPVVTIRFYEQEGLLPPPGRSRWNFRLYGEEHVERLQFIRHCRSLDMPLSDVRTLLSYRKRPDQDCGEVNMLLDEHIRQVESRIGALLELKHHLVELREACSGARPAQSCGILQGLSDCVCDTRGTTAHPSD [G36W]
sfGFP reporter fluorescence [1]: 0.0579 ± 0.0057 | sfGFP reporter fluorescence ([2]; ligand: 1 µM Pb): 0.0601 ± 0.0062 | sfGFP reporter fluorescence ([2]; ligand: 30 µM Zn): 0.104 ± 0.0042

MNIQIGELAKRTACPVVTIRFYEQEGLLPPPGRSRGNFRLYGEEHVERLQFIRHCRSLDMPLSDVRTLLSYRKRPDQDCGEVNMLLDEHIRQVESRIGALLELKHHLVELRFACSGARPAQSCGILQGLSDCVCDTRGTTAHPSD [E112F]
sfGFP reporter fluorescence [1]: 0.0575 ± 0.0026 | sfGFP reporter fluorescence ([2]; ligand: 1 µM Pb): 0.0647 ± 0.0023 | sfGFP reporter fluorescence ([2]; ligand: 30 µM Zn): 0.24 ± 0.012

MNIQIGELAKRTACPVVTIRFYEQEGLLPPPGRSRGNFRLYGEEHVERLQFIRHCRSLDMPLSDVRTLLSYRKRPDQDCGEVNMLLDEHIRQVESRIGALLELKHHLVELREACSGARPAQSSGILQGLSDCVCDTRGTTAHPSD [C123S]
sfGFP reporter fluorescence [1]: 0.0575 ± 0.0021 | sfGFP reporter fluorescence ([2]; ligand: 1 µM Pb): 0.0575 ± 0.001 | sfGFP reporter fluorescence ([2]; ligand: 30 µM Zn): 0.0552 ± 0.0018
